{"source": "patent US11452764B2", "about": "“Inhibiting FAK-AKT interaction to inhibit metastasis” (Board of Trustees of Michigan State University, priority 2017, dated 2022)", "key": {"[1]": {"system": "FAK-Tyr-397 phosphorylation", "assay": "FAK-Y397 western blotting in suspended SW620 cells at ambient or 15 mmHg increased pressure (ZINC compounds)", "type": "cell-based, human", "details": "for Pressure stimulation of FAK-pTyr397 / Basal FAK-pTyr397: concentrations studied: ZINC31501681 1 pM-300 μM, ZINC58264388 1 nM-100 nM, ZINC40099027 10 pM-10 nM, ZINC25613745 1 nM", "excerpt": "Extracellular pressure was increased by 15 mmHg over ambient pressure using a temperature and pressure-controlled box as described by Basson et al. (J Cell Biochem, 78: 47-61 (2000)).\nCells were maintained at ambient or increased pressure in bacteriologic plastic dishes pacificated with heat-inactivated bovine serum albumin to prevent adhesion and avoid adhesion-associated background FAK activation. Cells were lysed in lysis buffer, resolved by 10% SDS-PAGE, transferred to nitrocellulose and blotted with antibody to Tyr-397-phosphorylated FAK (rabbit monoclonal ab81298, Abcam, San Francisco, Calif., USA) and anti-rabbit 680 (LI-COR Inc. Lincoln, Nebr., USA), before quantitation using Kodak Scientific Imaging Systems 1D, V.3.5.4 (Zeng et al., Oncotarget, 8 98051-98067 (2017)). Total FAK (Anti-FAK, clone 4.47 Merck, Darmstadt, Germany with secondary anti-mouse 800, LI-COR Inc. Lincoln, Nebr., USA) served as a loading control. FAK and Tyr-397-phosphorylated FAK western blots yielded doublets similar to those previously observed by others (McConnell et al. Mol Cancer 10: 75 (2011); Aflaki et al. Cell Mol Life Sci, 68: 3933-3947 (2011)); Das et al. Cancer Res, 72: 6217-6226 (2012); Ammoun et al. Oncogene, 31: 1710-1722 (2012)). Both bands were quantitated together.\nFour structurally similar molecules to the FAK-derived sequence LAHPP (SEQ ID NO:25) (Table 2) were evaluated for their ability to prevent FAK activation by 15 mmHg increased extracellular pressure in human SW620 colon cancer cells. […] The structures of these compounds are shown below (and in FIG. 17)."}, "FAK-Akt1 interaction": {"target": "T1, FAK-Akt1 interaction (Homo sapiens, UniProt P31749)", "T1 construct": "endogenous in cells; host or cells: Akt1 from Caco-2/SW620 cell lysate; GST-FAK bait expressed in E. coli BL21 (pGEX-4T1)", "assay": "Interference of FAK-derived peptides with GST-FAK / GST-FAK-NT1 pull-down of Akt1", "type": "binding", "details": "for Akt1 pulldown by full length GST-FAK in presence of interfering 7 amino acid peptide: bait human wild type GST-FAK, peptides at 160 μM, vs. vehicle, n=12-14", "protocol": "(§1) In some cases Glutathione-Sepharose-4B beads (30 μl) (GE Healthcare Life Science, Pittsburgh, Pa.) were conjugated with GST (expressed protein from a 250 μl bacterial pellet per 30 μl of beads) or recombinant GST-tagged (expressed protein from a 3 ml bacterial pellet per 30 μl of beads) (24) and incubated with lysate from 2×10^7 Caco-2 or SW620 cells (1500 μg protein) or purified Akt1 (0.35 μg) (Origene, Rockville, Md.) overnight at 4° C. Similar incubation for two hours at 4° C. was performed with FAK-derived peptides (Peptide 2.0, Chantilly, Va.) reconstituted in sterile water and mixed with conjugated beads and cell lysate for a final concentration of […] before overnight Akt1 incubation. Bound protein was eluted for western analysis (24).\nTo minimize the effect of non-specific binding to GST, a larger FAK-NT1 peptide (relative to GST) was used as bait and the effects of interference by NT1-2-2 FAK truncated peptides were assessed.\nA full length GST-FAK was used as bait to further validate the ability of the interfering peptides to block Akt1 interaction with the entire FAK molecule. Because the seven-amino acid sequence from the short helix (LAHPPEE, SEQ ID NO:1) seemed sufficient for Akt1 binding (e.g., as shown in FIG. 6E), the focus was placed on this seven amino acid sequence and mutants thereof. […] Neither a scrambled version of the short helix (HPELAPE, SEQ ID NO:23) nor a peptide derived from the β-strand secondary structure C-terminal adjacent to the short helix (WKYELRI) interfered with pulldown."}, "Akt1": {"target": "Akt1 (Homo sapiens, UniProt P31749)", "sequence (P31749 whole entry, the tested form may be a part)": "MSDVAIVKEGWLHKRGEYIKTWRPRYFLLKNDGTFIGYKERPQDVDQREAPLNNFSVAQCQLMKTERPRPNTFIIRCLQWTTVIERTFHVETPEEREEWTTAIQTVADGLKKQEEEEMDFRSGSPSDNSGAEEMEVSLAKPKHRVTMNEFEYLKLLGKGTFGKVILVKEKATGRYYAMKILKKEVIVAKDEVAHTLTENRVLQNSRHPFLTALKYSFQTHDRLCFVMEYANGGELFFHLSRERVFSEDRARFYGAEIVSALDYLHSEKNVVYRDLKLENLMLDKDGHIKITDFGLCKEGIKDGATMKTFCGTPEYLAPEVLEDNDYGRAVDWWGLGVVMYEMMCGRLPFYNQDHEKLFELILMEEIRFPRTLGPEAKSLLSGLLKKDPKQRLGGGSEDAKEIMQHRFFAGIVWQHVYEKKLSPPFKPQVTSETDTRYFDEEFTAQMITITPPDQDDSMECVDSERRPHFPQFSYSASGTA", "assay": "GST-FAK truncation/mutant fusion protein pull-down of Akt1 (cell lysate or purified Akt1)", "type": "binding", "set-up": "endogenous in cells; host or cells: Caco-2 or SW620 cell lysate", "details": "for Akt1 pull-down by mutated GST-FAK-NT1 versus wild-type NT1: SW620 lysate, densitometry normalized to wild-type NT1, n=8-19, p<0.05; for Akt1 pulled down by GST-FAK truncations: GST pull-down, N=4, p<0.05", "protocol": "Glutathione-Sepharose 4B beads (15 μl) were washed twice in ice-cold PBS and resuspended in 400 μl PBS. Bacterial lysate containing GST-Akt1, GST-FAK-NT1 (truncations), or GST proteins (gift of Dr. J. Chen) were then added in excess and incubated with the beads for 1 h. Glutathione-Sepharose 4B beads coupled to GST-Akt1, GST-FAK (truncations), or GST were then washed twice with PBS by centrifuge for 5 min at 500 g and incubated with nontransfected or transfected Caco-2 cell lysates (600-800 μg protein) overnight at 4° C. Transfected Caco-2 cells received plasmids encoding HA-WT-FAK or HA-FRNK. Nontransfected and transfected Caco-2 cell lysates were prepared in cell lysis buffer lysis buffer [50 mM Tris (pH 7.4), 150 mM NaCl, 1% Triton X-100, 1% sodium deoxycholate, 0.1% SDS, 1 mM EDTA, 1 mM phenylmethylsulfonyl fluoride, 1 mM Na3VO4, 50 mM NaF, 10 mM sodium pyrophosphate, […] (pH 7.4)]. Following incubation, beads were washed twice with lysis buffer without SDS and protease inhibitors. Proteins were eluted with Laemmli SDS sample dilution buffer, separated by 10% SDS-PAGE, and immunoblotted with GST, Akt1 (Cell Signaling Technology, Danvers, Mass.), or HA monoclonal antibodies (Covance, Chantilly, Va.).\nas §1\nProtein concentrations were determined by bicinchoninic acid (BCA) protein assay (Pierce, Rockford, Ill.). Eluate from GST pull-downs or collected cell lysates was resolved by SDS-PAGE and transferred to Hybond P 0.45 PVDF blotting membrane (Amersham Life Science, Arlington Heights, Ill.). Membranes were blocked for 1 hour at room temperature with Odyssey TBS Blocking Buffer (Amersham Life Science, Arlington Heights, Ill.) and blotted overnight at 4° C. with antibodies against FAK (#3285), Phospho-FAK Tyr397 (#3283), Akt1 (#2967), Phospho-Akt1 Ser473 (#9271), GSK-3β (#9315), Phospho-GSK-3β Ser9 (#9315), or the GST tag (#2624) (CST, Beverly, Mass.). Membranes were visualized by the infrared fluorescent IRDye system (LI-COR Biosciences, Lincoln, Nebr.) and analyzed on an Odyssey scanner (LI-COR Biosciences, Lincoln, Nebr.) within the linear range. The doublet produced by the Akt1 antibody is consistent with results with this antibody (Ko et al., Elife: 5 (2016); Wu et al. Cell Discov 3: 16054 (2017)) and other (Datta et al. Cell 91: 231-41 (1997)) anti-Akt antibodies. Results were normalized to the appropriate GST tag, GAPDH, or total protein (for phosphorylated proteins) and relative to associated ambient controls unless stated otherwise.\nBecause the NT1 region of FAK is still quite large, we further truncated FAK-NT1 in an attempt to specify the region responsible for Akt1 binding. Five truncations were generated: NT1 (residues 1-126), NT1-1 (residues 1-60), NT1-2 (residues 61-126), […] (residues 61-93), and NT1-2-2 (residues 94-126) (FIG. 4A).\nTests involved use of 0.3 μg of purified Akt1 in pull-down assays to approximate the Akt1 in 1,500 μg of whole cell lysate, the lysate from 1×10^7 SW620 cells previously used in similar pull-down assays. This amount (0.3 μg of purified Akt1) was selected from Western blots comparing band intensity of 0.001-0.05 μg/lane of purified Akt1 against the band intensity of 40 or 80 μg/lane of cell lysate (not shown). […]"}, "[2]": {"details": "SW620, 15 mmHg increased pressure"}}, "note": "“Also recorded” adds a separate entry of the source. Where no end group is shown, it is not given here.", "data": [{"molecule": "C=C(Cl)/C(=C\\C)[C@H](CC(=O)N1CCC[C@H]1c1ccc(OC)c(OC)c1)NC(N)=O", "note": "[ZINC25613745]", "values": [{"measurement": "Pressure stimulation of FAK-pTyr397", "setting": "[1]; [2]", "result": "affected neither basal nor pressure-stimulated FAK-Tyr-397 phosphorylation; also recorded: Maintained"}, {"measurement": "Basal FAK-pTyr397", "setting": "[1]; SW620, ambient pressure", "result": "affected neither basal nor pressure-stimulated FAK-Tyr-397 phosphorylation; also recorded: No change"}]}, {"molecule": "O=C(N[C@@H](CC(=O)N1CCC[C@H]1c1nnc2ccccn12)c1ccccc1)c1ccccc1", "note": "[ZINC31501681]", "values": [{"measurement": "Pressure stimulation of FAK-pTyr397", "setting": "[1]; [2]", "result": "prevented a further pressure-induced increase in FAK-Tyr-397 phosphorylation"}, {"measurement": "Basal FAK-pTyr397", "setting": "[1]; SW620, ambient pressure", "result": "increased basal FAK-Tyr-397 phosphorylation"}, {"measurement": "Phosphorylation of FAK-Tyr-397 at ambient pressure (pFAKY397/FAK)", "setting": "[1]; suspended SW620, 1-100 pM, 30 minutes, vs 0.1% DMSO, five experiments, p≤0.05", "result": "enhances the phosphorylation of FAK-Tyr-397"}]}, {"molecule": "COc1ccc([C@@H]2CCCN2C(=O)Nc2cc(C(F)(F)F)ccc2N2CCOCC2)cc1", "note": "[ZINC40099027]", "values": [{"measurement": "Pressure stimulation of FAK-pTyr397", "setting": "[1]; [2]", "result": "prevented a further pressure-induced increase in FAK-Tyr-397 phosphorylation"}, {"measurement": "Basal FAK-pTyr397", "setting": "[1]; SW620, ambient pressure", "result": "increased basal FAK-Tyr-397 phosphorylation"}]}, {"molecule": "Cc1ccccc1[C@@H]1CCCN1C(=O)C[C@H](NC(N)=O)c1cccs1", "note": "[ZINC58264388]", "values": [{"measurement": "Concentrations at which there was no further increase of FAK-pTyr397 by pressure", "setting": "[1]; [2]", "result": "(10-100 nM)"}, {"measurement": "Pressure stimulation of FAK-pTyr397", "setting": "[1]; [2]", "result": "prevented a further pressure-induced increase in FAK-Tyr-397 phosphorylation"}, {"measurement": "Concentrations at which basal FAK-pTyr397 was increased", "setting": "[1]; SW620, ambient pressure", "result": "(10-100 nM)"}, {"measurement": "Basal FAK-pTyr397", "setting": "[1]; SW620, ambient pressure", "result": "increased basal FAK-Tyr-397 phosphorylation"}]}, {"molecule": "AAHCGEE [triple mutant L113A, P116C, P117G version of the FAK peptide]", "values": [{"measurement": "Akt1 pulldown by full length GST-FAK in presence of interfering 7 amino acid peptide", "setting": "FAK-Akt1 interaction", "result": "reduced Akt1 pulldown"}]}, {"molecule": "EVHWVHLDMGVSSVREKYELAHPPEEWKYELRI (listed as Homo sapiens) [Pep-FAK-NT1-2-2, wild-type 33 amino acid FAK peptide, residues 94-126]", "values": [{"measurement": "Akt1 pulled down by GST-FAK-NT1 in presence of interfering 33 amino acid peptide", "setting": "FAK-Akt1 interaction; bait GST-FAK-NT1, vs. vehicle (water), n=4", "result": "reduced binding between GST-FAK-NT1 and Akt1"}]}, {"molecule": "FAK(L113A/P116C/P117G): GST-FAK-NT1 triple mutant (AAHCGEE)", "values": [{"measurement": "Akt1 pull-down by mutated GST-FAK-NT1 versus wild-type NT1", "setting": "Akt1", "result": "increased Akt1 pull-down"}]}, {"molecule": "FAK(P117S): GST-FAK-NT1 with P117S mutation (LAHPSEE)", "values": [{"measurement": "Akt1 pull-down by mutated GST-FAK-NT1 versus wild-type NT1", "setting": "Akt1", "result": "lowered Akt1 pull-down"}]}, {"molecule": "HPELAPE [scrambled short helix control peptide, reference compound]", "values": [{"measurement": "Akt1 pulldown by full length GST-FAK in presence of interfering 7 amino acid peptide", "setting": "FAK-Akt1 interaction", "result": "No such effect"}]}, {"molecule": "LAHPPEE (listed as Homo sapiens) [wild-type seven amino acid short helix peptide, FAK residues 113-119]", "values": [{"measurement": "Akt1 pulldown by full length GST-FAK in presence of interfering 7 amino acid peptide", "setting": "FAK-Akt1 interaction", "result": "reduced Akt1 pulldown"}]}, {"molecule": "LAHPSEE [mutant (P117S) version of the seven amino acid FAK peptide]", "values": [{"measurement": "Akt1 pulldown by full length GST-FAK in presence of interfering 7 amino acid peptide", "setting": "FAK-Akt1 interaction", "result": "reduced Akt1 pulldown"}]}, {"molecule": "NT1-1: recombinant GST-FAK truncated peptide, residues 1-60 (MAAAYLDPNLNHTPNSSTKTHLGTGMERSPGAMERVLKVFHYFESNSEPTTWASIIRHGD; also: recombinant GST fusion (GST tag); listed as Homo sapiens)", "values": [{"measurement": "Akt1 pulled down by GST-FAK truncations", "setting": "Akt1", "result": "significantly smaller amount of Akt1"}]}, {"molecule": "NT1-2-1: recombinant GST-FAK truncated peptide, residues 61-93 (ATDVRGIIQKIVDSHKVKNVACYGFRLSHLRSE; also: recombinant GST fusion (GST tag); listed as Homo sapiens)", "values": [{"measurement": "Akt1 pulled down by GST-FAK truncations", "setting": "Akt1", "result": "significantly smaller amount of Akt1"}]}, {"molecule": "NT1-2-2: recombinant GST-FAK truncated peptide, residues 94-126 (SEQ ID NO:2) (EVHWVHLDMGVSSVREKYELAHPPEEWKYELRI; also: GST fusion (recombinant))", "values": [{"measurement": "Akt1 pulled down by GST-FAK truncations", "setting": "Akt1", "result": "significantly more Akt1"}, {"measurement": "Akt1 pull-down by GST-NT1-2-2 and its truncations versus GST control", "setting": "Akt1; n=6, p<0.05 vs. GST", "result": "pulled down much more"}]}, {"molecule": "WKYELRI [β-strand control peptide, C-terminal adjacent to the short helix, reference compound]", "values": [{"measurement": "Akt1 pulldown by full length GST-FAK in presence of interfering 7 amino acid peptide", "setting": "FAK-Akt1 interaction", "result": "No such effect"}]}]}
